The subject of the data set is MS2 coat protein. Briefly: apparent KD of MS2 coat protein; designed switch direction (-1 OFF switch, 1 ON switch): 1; higher = weaker reporter binding. In outline: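 Three titration conditions were used: no input, 200 uM small-molecule ligand, and an oligonucleotide input. In each, SNAP-549-labelled MS2 coat protein was raised from 0.7 or 1.5 nM, doubling, to 3 µM over designed RNA switches transcribed on Illumina chips by stalled E. coli RNA polymerase. Curve fits of normalised cluster fluorescence gave values whose per-design median over clusters is the apparent KD.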

Setting [1] is: input ligand: microRNA oligo, concentration not stated.

This is an account of results in the supplement of paper PMC9170038.

With “GUUACAUGAGGAUCACCCAUGUAUGUGUGGGAGUAAGUGUCUUAGGAUAUCUAUAAUUUAAAUUAAGAGAAGGAAGAUUGUUGU [JMF's solution 10] (Eterna round: R96, puzzle: Same State NG 3)”, the “apparent KD of MS2 coat protein” value runs as follows: (input ligand: FMN 200 uM) 121 nM; under setting [1], 69.4 nM; (input ligand: none) 115 nM.
In the same order, the values of “GUUACAUGAGGAUCACCCAUGUAUGUGUGGGAGUAAGUGUCUUAGGAUAUCUAUCAUUUGAUUUAAGAGAAGGAAGAUUGUUGU [JMF's solution 94] (Eterna round: R96, puzzle: Same State NG 3)” are 116 nM, 96.1 nM and 115 nM.
The corresponding values for “GUUACAUGAGGAUCACCCAUGUAUGUGUGGGAGUAAGUGUCUUAGGAUAUCUAUUAUUUAAUUAAAGAGAAGGAAGAUUGUUGU [JMF's solution 25] (Eterna round: R96, puzzle: Same State NG 3)” are 115 nM, 81.2 nM and 102 nM.
In the same order, the values of “GUUACAUGAGGAUCACCCAUGUAUGUGUGGGAGUAAGUGUCUUAGGAUAUCUAUUAUUUAAUUGAAGAGAAGGAAGAUUGUUGU [JMF's solution 26] (Eterna round: R96, puzzle: Same State NG 3)” are 160 nM, 95 nM and 112 nM.
Take “GUUACAUGAGGAUCACCCAUGUAUGUGUGGGAGUAAGUGUCUUAGGAUAUCUAUUGUUUAAAUUAAGAGAAGGAAGAUUGUUGU [JMF's solution 13] (Eterna round: R96, puzzle: Same State NG 3)”: the “apparent KD of MS2 coat protein” value by setting is: (input ligand: FMN 200 uM) 102 nM; under setting [1], 84.3 nM; (input ligand: none) 117 nM.
In the same order, the values of “GUUACAUGAGGAUCACCCAUGUAUGUGUGGGAGUAAGUGUCUUAGGAUAUCUGUUAUCUAAUUUAAGAGAAGGAAGAUUGUUGU [JMF's solution 35] (Eterna round: R96, puzzle: Same State NG 3)” are 162 nM, 53.4 nM and 87.2 nM.
On to “GUUACAUGAGGAUCACCCAUGUAUGUGUGGGAGUAAGUGUCUUAGGAUAUCUGUUAUGUAAUUUAAGAGAAGGAAGAUUGUUGU [JMF's solution 34] (Eterna round: R96, puzzle: Same State NG 3)”, for which the “apparent KD of MS2 coat protein” value (input ligand: FMN 200 uM) amounted to 282 nM, the “apparent KD of MS2 coat protein” value under setting [1] was 300 nM and the “apparent KD of MS2 coat protein” value (input ligand: none) worked out at 296 nM.
The corresponding values for “GUUACAUGAGGAUCACCCAUGUGUGUGUGGGAGUAAGUGUCUUAGGAUAUCUAUGAUUUAAGUUAAGAGAAGGAAGAUUGUUGU [SS-NG3-LRO01] (Eterna round: R96, puzzle: Same State NG 3)” are 479 nM, 261 nM and 395 nM.
Regarding “GUUAGGAAUCUAGCAAACAUGAGGAUCACCCAUGUUAGUGGGAAGGAUAUGGUACAGAAACUGUACCAGAAGGUCUUAUUGUUU [Omei SS(NG) 3 AV9] (Eterna round: R96, puzzle: Same State NG 3)”, the “apparent KD of MS2 coat protein” value worked out at 580 nM (input ligand: FMN 200 uM), 403 nM under setting [1] and 439 nM (input ligand: none).
In the case of “GUUAUACAUGAGGAUCACCCAUGUCAAUGUAGUCGAGGAUAUGGGCAGCUAUGAGGCGUACUAGAAGGCGAAGAGG [JL-ss1-3.11 ViennaUCT mod] (puzzle: Same State 1)”, the “apparent KD of MS2 coat protein” value (Eterna round: R95, input ligand: FMN 200 uM) worked out at 81.6 nM; the “apparent KD of MS2 coat protein” value (Eterna round: R95, input ligand: microRNA oligo, concentration not stated) is 234 nM; the “apparent KD of MS2 coat protein” value (Eterna round: R95, input ligand: none) amounted to 197 nM.
With “GUUAUACAUGAGGAUCACCCAUGUCAAUGUAGUCGAGGAUAUGGGUAGCUAUGAGGCGUACUAGAAGGCGAGGAGU [JL-ss1-3.16 ViennaUCT mod] (Eterna round: R96, puzzle: Same State 1)”, the “apparent KD of MS2 coat protein” value (input ligand: FMN 200 uM) was found to be 503 nM, the “apparent KD of MS2 coat protein” value under setting [1] came to 246 nM and the “apparent KD of MS2 coat protein” value (input ligand: none) turned out to be 477 nM.
